Test results as given in the supplement of paper PMC10567573.

B1: ANKRD40 (parent)
chain: YQELLRVCCCELGVNPDQVEKIRK
B2: P2RY14 (parent)
chain: KLLSVIVWMLMLLLAVPNIILTNQ

Variants of: B1
Assay: protein stability index of a GFP-peptide fusion (GPS, HEK-293T) (PSI 1-6); higher = more stable
Conditions: c terminus: a fixed tail appended
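Note: lentivirally expressed fusions sorted by FACS into six bins by GFP to DsRed ratio, PSI derived from sequencing read proportions per bin multiplied by bin number.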

Protein stability index, by site and new letter:
V19: L 2.2
D17: Y 2.01
N15: I 1.37
R6: P 2.02

Variants of: B2
Assay: as above
Conditions: c terminus: a fixed tail appended

Protein stability index: each site, then its substitutions
L12: R 2.69 | N 2.32 | D 2.65 | P 3.18 | G 3.74 | A 2.7 | C 3.75 | Q 2.51 | M 3.06 | H 2.22 | F 2.59
I6: D 2.02 | V 4.09 | M 3.13 | A 2.45 | F 2.8 | R 2.43 | N 3.01 | W 2.02 | S 2.39 | P 1.89 | T 2.48 | L 4.14 | G 2.2
L3: E 2.78 | T 2.93 | I 1.73 | M 1.64 | S 2.35 | A 2.27 | H 1.3 | K 3.61 | N 4.61 | W 3.69 | Y 2.55 | F 3.42
V5: M 1.71 | K 2.52 | L 2.11 | E 2.42 | F 2.09 | W 2.74 | D 3.22 | T 3.51 | H 3.85 | Y 2.63 | A 3.26 | R 2.79 | G 4.02 | P 2.54 | I 3.93 | Q 2.35 | N 2.29 | S 3.98
M9: L 3.19 | G 2.87 | W 2.15 | N 2.1 | S 3.82 | D 4.27 | K 3.05 | E 2.68 | A 3.79 | Q 3.1
K1: G 2.55 | P 2.13 | D 1.48 | Y 3.13 | Q 4.07 | F 3.58 | I 2.53 | W 1.35 | L 3.3 | R 2.35 | H 4.35
L13: F 3.72 | I 1.81 | H 4.28 | D 3.11 | A 2.98 | G 2.79
V7: T 3.76 | Y 3.99 | K 4.05 | M 3.08 | E 2.65 | D 3.57 | F 2.12 | R 2.31 | A 2.07 | P 2.8 | S 2.28 | H 2.11 | Q 2.74 | W 4.44
L10: Q 3.16 | D 2.5 | N 1.95 | V 2.99 | E 4.43 | P 2.86 | G 2.08 | H 3.63 | W 2.31 | Y 3.48 | S 4.89 | I 3.19 | F 3.32 | T 3.58 | C 1.39 | M 3.84
L2: P 3.19 | C 3.88 | D 2.67 | I 3.46 | G 2.21 | N 1.89 | F 2.29 | K 2.76
S4: I 2.44 | G 2.85 | W 4.74 | Y 2.82 | F 2.98 | T 2.53 | P 3.34 | H 3.18 | K 5.66 | N 2.81 | R 2.78 | V 3.9 | Q 2.56
W8: Y 2.21 | E 3.97 | V 2.86 | R 2.67 | Q 1.99 | G 2.81 | C 1.95 | M 3.83 | T 3.35 | K 3.73 | L 1.76 | N 2.41 | P 1.85 | I 3.03 | F 2.3 | H 2.85
M11: W 2.89 | P 3.16 | Y 2.38 | I 3.17 | E 2.06 | K 2.5 | Q 1.1 | H 3 | V 3.42 | A 2.06 | D 4.89 | S 2.01 | R 2.58 | N 2.42 | F 3.31
